From article PMC8070380 (2021)

Legend:
[1] = biological target: T1, A3Bctd-DM (L230K/F308K), residues 187-378 (human, UniProt Q9UH17 187-378, L230K | F308K); assay: SPR; association 300 s, dissociation 750 s
[2] = biological target: T1, A3Bctd-DM (L230K/F308K), residues …; assay: SPR; association 120 s, dissociation 300 s

T1 sequence (Q9UH17 187-378 L230K/F308K): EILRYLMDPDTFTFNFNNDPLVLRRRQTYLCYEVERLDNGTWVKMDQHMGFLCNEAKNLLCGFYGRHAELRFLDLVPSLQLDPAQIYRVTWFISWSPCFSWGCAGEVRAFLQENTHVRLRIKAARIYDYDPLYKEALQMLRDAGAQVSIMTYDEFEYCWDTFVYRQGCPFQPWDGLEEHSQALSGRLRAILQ

B1: scFv 5G7 (heavy chain Fv followed by light chain Fv, 16-residue His8 linker) (scFv, V domains shown)
VH: EVQLLESGGDLVKPGGSLKLSCAASGFTFSSYGMSWVRQTPDKRLEWVATISSGGSYTYYPDSVKGRFTISRDNAKNTLYLQMSSLKSEDTAMYYCARGGEGYYFDYWGQGTTLTVSS
VL: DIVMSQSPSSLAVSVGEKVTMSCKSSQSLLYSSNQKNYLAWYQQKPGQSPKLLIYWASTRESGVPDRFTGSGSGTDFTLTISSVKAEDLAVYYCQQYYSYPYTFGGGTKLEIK
- koff [1]: 0.000331 s⁻¹
- koff [2]: 0.000779 s⁻¹
